Results from paper PMC6025827 (Nature structural & molecular biology, 2018).

Biological target: the molecule itself
Assay: crystal structure

B1: miTRPV2QM (minimal rabbit TRPV2 construct with the four point mutations F470S, L505M, L508T and Q528E) (domain or fragment)
chain: LNYRKGAGASQPDLNRFDRDRLFNVVARGNPEDLAGLLEYLRRTSKYLTDSEYTEGSTGKTCLMKAVLNLQDGVNACIQPLLEIDRDSGNPQPLVNAQCTDEYYRGHSALHIAIEKRSLQCVKLLVENGANVHAKACGHFFQKNQDTCFYFGELPLSLAACTKQWDVVNYLLENPHQPASLQAQDSLGNTVLHALVMIADDSAENSALVVRMYDGLLQAGARLCPNVQLEGIPNLEGLTPLKLAAKEGKIEIFKHILQREFSAPCQSLSRKFTEWCYGPVRVSLYDLASVDSWEENSVLEIIAFHSRSPHRHRMVVLEPLNKLLQAKWDRLIPRFCFNFLCYLVYMLIFTAVAYHQPALEKQGFPPLKATAGNSMLLLGHILILLGGVYLLLGQLWYFWRRRLFIWISFMDSYSEILFLLQALLTVLSQVLCFLAIEWYLPLLVSSLVMGWTNLLYYTRGFQHTGIYSVMIEKVILRDLLRFLLVYLVFLFGFAVALVSLSREAQDEAPPYRSILDASLELFKFTIGMGELAFQEQLRFRGVVLLLLLAYVLLTYVLLLNMLIALMSETVNSVATDSWSIWKLQKAISVLEMENGYWWCRRKKQRAGVMLTVGTRPDGSPDERWCFRVGEMNWATWEQTLPRTLC
  stoichiometry N: 4
